{"source": "paper PMC6327041", "about": "(Nature Communications, 2019)", "molecular_target": "T1, KDM5A1-797 (Homo sapiens, UniProt P29375)", "T1 construct": "KDM5A1-797 was cloned into a pFASTBAC HTA vector; His (N, cleaved yes); made in house; host or cells: Sf21 insect cells (baculovirus)", "T1 sequence (P29375 1-797)": "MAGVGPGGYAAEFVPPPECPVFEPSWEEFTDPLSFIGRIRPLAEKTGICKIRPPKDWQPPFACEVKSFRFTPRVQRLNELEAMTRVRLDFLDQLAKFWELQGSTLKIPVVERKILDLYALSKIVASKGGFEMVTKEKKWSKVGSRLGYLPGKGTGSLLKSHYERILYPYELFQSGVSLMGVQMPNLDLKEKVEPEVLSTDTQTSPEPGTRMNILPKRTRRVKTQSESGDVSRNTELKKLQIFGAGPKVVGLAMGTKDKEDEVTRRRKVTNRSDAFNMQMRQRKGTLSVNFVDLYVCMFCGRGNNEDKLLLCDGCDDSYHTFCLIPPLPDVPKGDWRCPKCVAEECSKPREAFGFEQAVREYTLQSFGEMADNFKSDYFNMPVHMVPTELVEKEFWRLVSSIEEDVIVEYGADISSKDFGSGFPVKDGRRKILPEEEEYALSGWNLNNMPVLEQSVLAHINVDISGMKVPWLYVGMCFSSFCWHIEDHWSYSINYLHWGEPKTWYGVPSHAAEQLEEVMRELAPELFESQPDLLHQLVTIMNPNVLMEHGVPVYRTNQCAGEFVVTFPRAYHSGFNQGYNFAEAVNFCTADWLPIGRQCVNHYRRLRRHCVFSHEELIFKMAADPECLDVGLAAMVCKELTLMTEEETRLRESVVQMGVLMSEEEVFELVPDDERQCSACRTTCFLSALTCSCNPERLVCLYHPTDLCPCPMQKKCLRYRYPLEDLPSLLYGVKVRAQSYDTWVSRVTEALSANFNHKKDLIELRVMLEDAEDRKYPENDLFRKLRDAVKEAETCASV", "assay": "Lysine crosslinking MS", "details": "H3 effector peptide 40 µM, BS^3-H12/D12, 1 h, 4 °C", "method": "Hundred micrograms of KDM5A1-797 was crosslinked with 1 mM BS^3-H12 for 1 h at 4 °C. […] After quenching with 50 mM Tris-base, the light and heavy crosslinked reaction mixtures were combined and precipitated with ice cold acetone. Crosslinked proteins were pelleted by spinning at 21,000 × g, the supernatant was removed, and the pellet was washed once with cold acetone. The precipitate was brought up in 8 M Urea, 10 mM TCEP, heated at 56 °C for 20 min, and then alkylated with 15 mM iodoacetamide (45 min at room temperature). The sample was diluted to 2 M Urea and digested […] with 0.8 µg trypsin for 4 h at 37 °C. A second aliquot of trypsin was then added and digestion was allowed to proceed overnight. […]\nLC-MS analysis was performed with a Q-Exactive Plus mass spectrometer (Thermo Scientific) coupled with a nanoelectrospray ion source (Easy-Spray, Thermo) and NanoAcquity UPLC system (Waters). […] Precursor MS scans were measured in the Orbitrap scanning from 350 to 1500 m/z (mass resolution: 70,000). The ten most intense triply charged or higher precursors were isolated in the quadrupole (isolation window: 4 m/z), dissociated by HCD (normalized collision energy: 23), and the product ion spectra were measured in the Orbitrap (mass resolution: 17,500). […]\nFor quantitative analysis, precursor ion filtering in Skyline 4.1 was used to extract light:heavy crosslinked precursor ion signals. […]"}
{"substance": "H3: unmodified N-terminal H3 tail 10mer peptide (H3 Ala1-Ser10), PHD1 effector ligand", "values": [{"measurement": "changes in lysine crosslinks", "result": "minor changes in crosslink occupancy and distribution"}]}
